Publication PMC10183053 (Journal of biomolecular structure & dynamics, 2022)
Read-outs that look alike come from different tables or passages of the source.

B1: human Hsp90α_293–699 (wild type Hsp90α middle/C-terminal domain) (domain or fragment)
chain: not shown
B2: human Hsp90α_293–714_W320A mutant (domain or fragment)
chain: not shown

How the values were obtained:
crystal structure [1] = target: the molecule itself; assay: crystal structure
crystal structure [2] = target: the molecule itself; assay: crystal structure; remark: listed apart in the source

| Protein | stoichiometry N (crystal structure [1]) | stoichiometry N (crystal structure [2]) |
| --- | --- | --- |
| B1 | 6 | – |
| B2 | – | 2 |
